Test results from the supplement of paper PMC12458215.
± gives the uncertainty stated by the source.

System: HEK293T
Assay: plasma membrane surface immunostaining intensity (anti-HA, deep receptor scanning) (arbitrary fluorescence units); higher = higher plasma membrane expression

MEAGNQTGFLEFILLGLSEDPELQPFIFGLFLSMYLVTVLGNLLIILAISSDSHLHTPMYFFLSNLSWVDICFSTCIVPKMLVNIQTENKAISYMDCLTQVYFSMFFPILDTLLLTVMAYDRFVAVCHPLHYMIIMNPHLCGLLVFVTWLIGVMTSLLHISLMMHLIFCKDFEIPHFFCELTYILQLACSDTFLNSTLIYFMTGVLGVFPLLGIIFSYSRIASSIRKMSSSGGKQKALSTCGSHLSVVSLFYGTGIGVHFTSAVTHSSQKISVASVMYTVVTPMLNPFIYSLRNKDVKGALGSLLSRAASCL [OR7D2]
plasma membrane surface immunostaining intensity (GPCR class: A (Olfactory)): 118 ± 23

MEARNQTAISKFLLLGLIEDPELQPVLFSLFLSMYLVTILGNLLILLAVISDSHLHTPMYFFLSNLSFLDICLSTTTIPKMLVNIQAQNRSITYSGCLTQICFVLFFAGLENCLLAAMAYDRYVAICHPLRYTVIMNPRLCGLLILLSLLTSVVNALLLSLMVLRLSFCTDLEIPLFFCELAQVIQLTCSDTLINNILIYFAACIFGGVPLSGIILSYTQITSCVLRMPSASGKHKAVSTCGSHLSIVLLFYGAGLGVYISSVVTDSPRKTAVASVMYSVFPQMVNPFIYSLRNKDMKGTLRKFIGRIPSLLWCAICFGFRFLE [OR7G2]
plasma membrane surface immunostaining intensity (GPCR class: A (Olfactory)): 165 ± 53

MEDFNMESDSFEDFWKGEDLSNYSYSSTLPPFLLDAAPCEPESLEINKYFVVIIYALVFLLSLLGNSLVMLVILYSRVGRSVTDVYLLNLALADLLFALTLPIWAASKVNGWIFGTFLCKVVSLLKEVNFYSGILLLACISVDRYLAIVHATRTLTQKRYLVKFICLSIWGLSLLLALPVLLFRRTVYSSNVSPACYEDMGNNTANWRMLLRILPQSFGFIVPLLIMLFCYGFTLRTLFKAHMGQKHRAMRVIFAVVLIFLLCWLPYNLVLLADTLMRTQVIQETCERRNHIDRALDATEILGILHSCLNPLIYAFIGQKFRHGLLKILAIHGLISKDSLPKDSRPSFVGSSSGHTSTTL [CXCR2]
plasma membrane surface immunostaining intensity (GPCR class: A): 266 ± 3.4

MEDLEETLFEEFENYSYDLDYYSLESDLEEKVQLGVVHWVSLVLYCLAFVLGIPGNAIVIWFTGFKWKKTVTTLWFLNLAIADFIFLLFLPLYISYVAMNFHWPFGIWLCKANSFTAQLNMFASVFFLTVISLDHYIHLIHPVLSHRHRTLKNSLIVIIFIWLLASLIGGPALYFRDTVEFNNHTLCYNNFQKHDPDLTLIRHHVLTWVKFIIGYLFPLLTMSICYLCLIFKVKKRSILISSRHFWTILVVVVAFVVCWTPYHLFSIWELTIHHNSYSHHVMQAGIPLSTGLAFLNSCLNPILYVLISKKFQARFRSSVAEILKYTLWEVSCSGTVSEQLRNSETKNLCLLETAQ [CMKLR2]
plasma membrane surface immunostaining intensity (GPCR class: A): 510 ± 52

MEEAILLNQTSLVTYFRLRGLSVNHKARIAMFSMFLIFYVLTLIGNVLIVITIIYDHRLHTPMYFFLSNLSFIDVCHSTVTVPKMLRDVWSEEKLISFDACVTQMFFLHLFACTEIFLLTVMAYDRYVAICKPLQYMIVMNWKVCVLLAVALWTGGTIHSIALTSLTIKLPYCGPDEIDNFFCDVPQVIKLACIDTHVIEILIVSNSGLISVVCFVVLVVSYAVILVSLRQQISKGKRKALSTCAAHLTVVTLFLGHCIFIYSRPSTSLPEDKVVSVFFTAVTPLLNPIIYTLRNEEMKSALNKLVGRKERKEEK [OR4E1]
plasma membrane surface immunostaining intensity (GPCR class: A (Olfactory)): 264 ± 95

MEEENATLLTEFVLTGFLYQPQWKIPLFLAFLVIYLITIMGNLGLIAVIWKDPHLHIPMYLLLGNLAFVDALLSSSVTLKMLINFLAKSKMISLSECKIQLFSFAISVTTECFLLATMAYDRYVAICKPLLYPAIMTNGLCIRLLILSYVGGLLHALIHEGFLFRLTFCNSNIIQHFYCDIIPLLKISYTDSSINFLMVFIFAGSIQVFTIGTVLISYIFVLYTILKKKSVKGMRKAFSTCGAHLLSVSLYYGPLAFMYMGSASPQADDQDMMESLFYTVIVPLLNPMIYSLRNKQVIASFTKMFKRNDV [OR5H14]
plasma membrane surface immunostaining intensity (GPCR class: A (Olfactory)): 116 ± 19

MEEENATLLTEFVLTGFLYQPQWKIPLFLAFLVIYLITIMGNLGLIAVIWKDPHLHIPMYLLLGNLAFVDAWISSTVTPKMLNNFLAKSKMISLSECKIQFFSFAISVTTECFLLATMAYDRYVAICKPLLYPAIMTNGLCIRLLILSYVGGILHALIHEGFLFRLTFCNSNIVHHIYCDTIPLSKISCTDSSINFLMVFIFSGSIQVFSIVTILVSYTFVLFAILKKKSDKGVRKAFSTCGAHLFSVSLYYGPLLFIYVGPASPQADDQDMVEPLFYTVIIPLLNPIIYSLRNKQVTVSFTKMLKKHVKVSY [OR5H1]
plasma membrane surface immunostaining intensity (GPCR class: A (Olfactory)): 124 ± 20

MEEENATLLTEFVLTGFLYQPQWKIPLFLAFLVIYLITIMGNLGLIAVIWKDPHLHIPMYLLLGNLAFVDAWISSTVTPKMLNNFLAKSKMISLSECKIQFFSIAIGVTTECFLLATMAYDRYVAICKPLLYPAIMTNGLCIRLLILSYIAGILHALIHEGFLFRLTFCNSNIVHHIYCDTIPLSKISCTDSSINFLMVFIFSGSIQVFSIVTILISYTFVLFTVLEKKSDKGVRKAFSTCGAHLFSVCLYYGPLLLMYVGPASPQADGQNMVEPLFYTVIIPLLNPIIYSLRNKQVIVSFIKMLKRNVKVSY [OR5H15]
plasma membrane surface immunostaining intensity (GPCR class: A (Olfactory)): 181 ± 56

MEEGGDFDNYYGADNQSECEYTDWKSSGALIPAIYMLVFLLGTTGNGLVLWTVFRSSREKRRSADIFIASLAVADLTFVVTLPLWATYTYRDYDWPFGTFFCKLSSYLIFVNMYASVFCLTGLSFDRYLAIVRPVANARLRLRVSGAVATAVLWVLAALLAMPVMVLRTTGDLENTTKVQCYMDYSMVATVSSEWAWEVGLGVSSTTVGFVVPFTIMLTCYFFIAQTIAGHFRKERIEGLRKRRRLLSIIVVLVVTFALCWMPYHLVKTLYMLGSLLHWPCDFDLFLMNIFPYCTCISYVNSCLNPFLYAFFDPRFRQACTSMLCCGQSRCAGTSHSSSGEKSASYSSGHSQGPGPNMGKGGEQMHEKSIPYSQETLVVD [APLNR]
plasma membrane surface immunostaining intensity (GPCR class: A): 6400 ± 84

MEETNNSSEKGFLLLGFSDQPQLERFLFAIILYFYVLSLLGNTALILVCCLDSRLHTPMYFFLSNLSCVDICFTTSVAPQLLVTMNKKDKTMSYGGCVAQLYVAMGLGSSECILLAVMAYDRYAAVCRPLRYIAIMHPRFCASLAGGAWLSGLITSLIQCSLTVQLPLCGHRTLDHIFCEVPVLIKLACVDTTFNEAELFVASVVFLIVPVLLILVSYGFITQAVLRIKSAAGRQKAFGTCSSHLVVVIIFYGTIIFMYLQPANRRSKNQGKFVSLFYTIVTPLLNPIIYTLRNKDVKGALRTLILGSAAGQSHKD [OR2G6]
plasma membrane surface immunostaining intensity (GPCR class: A (Olfactory)): 122 ± 18

MEGALAANWSAEAANASAAPPGAEGNRTAGPPRRNEALARVEVAVLCLILLLALSGNACVLLALRTTRQKHSRLFFFMKHLSIADLVVAVFQVLPQLLWDITFRFYGPDLLCRLVKYLQVVGMFASTYLLLLMSLDRCLAICQPLRSLRRRTDRLAVLATWLGCLVASAPQVHIFSLREVADGVFDCWAVFIQPWGPKAYITWITLAVYIVPVIVLAACYGLISFKIWQNLRLKTAAAAAAEAPEGAAAGDGGRVALARVSSVKLISKAKIRTVKMTFIIVLAFIVCWTPFFFVQMWSVWDANAPKEASAFIIVMLLASLNSCCNPWIYMLFTGHLFHELVQRFLCCSASYLKGRRLGETSASKKSNSSSFVLSHRSSSQRSCSQPSTA [OXTR]
plasma membrane surface immunostaining intensity (GPCR class: A): 5390 ± 230

MEGDSYHNATTVNGTPVNHQPLERHRLWEVITIAAVTAVVSLITIVGNVLVMISFKVNSQLKTVNNYYLLSLACADLIIGIFSMNLYTTYILMGRWALGSLACDLWLALDYVASNASVMNLLVISFDRYFSITRPLTYRAKRTPKRAGIMIGLAWLISFILWAPAILCWQYLVGKRTVPLDECQIQFLSEPTITFGTAIAAFYIPVSVMTILYCRIYRETEKRTKDLADLQGSDSVTKAEKRKPAHRALFRSCLRCPRPTLAQRERNQASWSSSRRSTSTTGKPSQATGPSANWAKAEQLTTCSSYPSSEDEDKPATDPVLQVVYKSQGKESPGEEFSAEETEETFVKAETEKSDYDTPNYLLSPAAAHRPKSQKCVAYKFRLVVKADGNQETNNGCHKVKIMPCPFPVAKEPSTKGLNPNPSHQMTKRKRVVLVKERKAAQTLSAILLAFIITWTPYNIMVLVSTFCDKCVPVTLWHLGYWLCYVNSTVNPICYALCNRTFRKTFKMLLLCRWKKKKVEEKLYWQGNSKLP [CHRM5]
plasma membrane surface immunostaining intensity (GPCR class: A): 1470 ± 190

MEGISIYTSDNYTEEMGSGDYDSMKEPCFREENANFNKIFLPTIYSIIFLTGIVGNGLVILVMGYQKKLRSMTDKYRLHLSVADLLFVITLPFWAVDAVANWYFGNFLCKAVHVIYTVNLYSSVLILAFISLDRYLAIVHATNSQRPRKLLAEKVVYVGVWIPALLLTIPDFIFANVSEADDRYICDRFYPNDLWVVVFQFQHIMVGLILPGIVILSCYCIIISKLSHSKGHQKRKALKTTVILILAFFACWLPYYIGISIDSFILLEIIKQGCEFENTVHKWISITEALAFFHCCLNPILYAFLGAKFKTSAQHALTSVSRGSSLKILSKGKRGGHSSVSTESESSSFHSS [CXCR4]
plasma membrane surface immunostaining intensity (GPCR class: A): 814 ± 140

MEGNKTWITDITLPRFQVGPALEILLCGLFSAFYTLTLLGNGVIFGIICLDCKLHTPMYFFLSHLAIVDISYASNYVPKMLTNLMNQESTISFFPCIMQTFLYLAFAHVECLILVVMSYDRYADICHPLRYNSLMSWRVCTVLAVASWVFSFLLALVPLVLILSLPFCGPHEINHFFCEILSVLKLACADTWLNQVVIFAACVFILVGPLCLVLVSYLRILAAILRIQSGEGRRKAFSTCSSHLCVVGLFFGSAIVTYMAPKSRHPEEQQKVLSLFYSLFNPMLNPLIYSLRNAEVKGALRRALRKERLT [OR2A14]
plasma membrane surface immunostaining intensity (GPCR class: A (Olfactory)): 121 ± 40

MEGNQTWITDITLLGFQVGPALAILLCGLFSVFYTLTLLGNGVIFGIICLDSKLHTPMYFFLSHLAIIDMSYASNNVPKMLANLMNQKRTISFVPCIMQTFLYLAFAVTECLILVVMSYDRYVAICHPFQYTVIMSWRVCTILVLTSWSCGFALSLVHEILLLRLPFCGPRDVNHLFCEILSVLKLACADTWVNQVVIFATCVFVLVGPLSLILVSYMHILGAILKIQTKEGRIKAFSTCSSHLCVVGLFFGIAMVVYMVPDSNQREEQEKMLSLFHSVFNPMLNPLIYSLRNAQLKGALHRALQRKRSMRTVYGLCL [OR2A2]
plasma membrane surface immunostaining intensity (GPCR class: A (Olfactory)): 129 ± 17

MEHTHAHLAANSSLSWWSPGSACGLGFVPVVYYSLLLCLGLPANILTVIILSQLVARRQKSSYNYLLALAAADILVLFFIVFVDFLLEDFILNMQMPQVPDKIIEVLEFSSIHTSIWITVPLTIDRYIAVCHPLKYHTVSYPARTRKVIVSVYITCFLTSIPYYWWPNIWTEDYISTSVHHVLIWIHCFTVYLVPCSIFFILNSIIVYKLRRKSNFRLRGYSTGKTTAILFTITSIFATLWAPRIIMILYHLYGAPIQNRWLVHIMSDIANMLALLNTAINFFLYCFISKRFRTMAAATLKAFFKCQKQPVQFYTNHNFSITSSPWISPANSHCIKMLVYQYDKNGKPIKVSP [GPR139]
plasma membrane surface immunostaining intensity (GPCR class: A): 3010 ± 800

MEIVSTGNETITEFVLLGFYDIPELHFLFFIVFTAVYVFIIIGNMLIIVAVVSSQRLHKPMYIFLANLSFLDILYTSAVMPKMLEGFLQEATISVAGCLLQFFIFGSLATAECLLLAVMAYDRYLAICYPLHYPLLMGPRRYMGLVVTTWLSGFVVDGLVVALVAQLRFCGPNHIDQFYCDFMLFVGLACSDPRVAQVTTLILSVFCLTIPFGLILTSYARIVVAVLRVPAGASRRRAFSTCSSHLAVVTTFYGTLMIFYVAPSAVHSQLLSKVFSLLYTVVTPLFNPVIYTMRNKEVHQALRKILCIKQTETLD [OR11A1]
plasma membrane surface immunostaining intensity (GPCR class: A (Olfactory)): 398 ± 120
